The IC50 is the concentration at which inhibition is half-maximal. Usually Kd stands for a measure of binding affinity in units of concentration. A lower Kd goes with tighter binding.

Where no end group is shown, it is not given here.

Assay [1] concerns the target T1, human formyl peptide receptor 1 (FPR1) (human, UniProt P21462 1-350).
T1 construct: formyl peptide receptor 1, human, overexpressed in HEK293 cells; also called FPR1-HEK293; source: HEK293, transiently overexpressed
T1 sequence (looked up): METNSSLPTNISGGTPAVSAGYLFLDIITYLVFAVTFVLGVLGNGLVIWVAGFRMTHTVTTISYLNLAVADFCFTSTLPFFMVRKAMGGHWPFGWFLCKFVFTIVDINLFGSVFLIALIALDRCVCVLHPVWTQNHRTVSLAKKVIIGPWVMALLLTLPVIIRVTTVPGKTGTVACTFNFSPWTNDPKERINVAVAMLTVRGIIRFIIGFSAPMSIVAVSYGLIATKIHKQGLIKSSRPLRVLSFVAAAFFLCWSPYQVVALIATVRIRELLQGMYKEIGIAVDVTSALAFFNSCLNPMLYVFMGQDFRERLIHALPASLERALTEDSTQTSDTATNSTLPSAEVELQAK
Kind of assay: other fluorescence titration; competitive binding assay; labelled SCIMP^N mixed with serially diluted fMLF (5-1280 nM) and a fixed amount of FPR-containing HEK293 membrane debris, fluorescence at 512 nm measured for 4 min.

Assay [2] has as its target T2, human formyl peptide receptor 2 (FPR2) (human, UniProt P25090 1-351).
T2 construct: formyl peptide receptor 2, human, overexpressed in HEK293 cells; also called FPR2-HEK293; source: HEK293, transiently overexpressed
T2 sequence (looked up): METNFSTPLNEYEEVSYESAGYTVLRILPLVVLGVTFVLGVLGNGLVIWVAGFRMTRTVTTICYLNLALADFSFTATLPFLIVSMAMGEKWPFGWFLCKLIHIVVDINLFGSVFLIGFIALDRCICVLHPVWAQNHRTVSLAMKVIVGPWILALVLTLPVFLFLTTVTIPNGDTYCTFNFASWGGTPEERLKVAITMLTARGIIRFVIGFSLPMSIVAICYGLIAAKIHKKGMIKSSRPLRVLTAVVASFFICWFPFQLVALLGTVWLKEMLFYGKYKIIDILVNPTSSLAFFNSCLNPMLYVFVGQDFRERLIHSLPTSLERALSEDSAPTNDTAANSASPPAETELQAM
Described as above.

Assay [3] concerns the target T3, murine FPR2 (murine, UniProt O88536 1-351).
T3 construct: formyl peptide receptor 2, mouse, overexpressed in HEK293 cells; also called murine formyl peptide receptor 2; source: HEK293 overexpressing FPRs, membrane debris
T3 sequence (looked up): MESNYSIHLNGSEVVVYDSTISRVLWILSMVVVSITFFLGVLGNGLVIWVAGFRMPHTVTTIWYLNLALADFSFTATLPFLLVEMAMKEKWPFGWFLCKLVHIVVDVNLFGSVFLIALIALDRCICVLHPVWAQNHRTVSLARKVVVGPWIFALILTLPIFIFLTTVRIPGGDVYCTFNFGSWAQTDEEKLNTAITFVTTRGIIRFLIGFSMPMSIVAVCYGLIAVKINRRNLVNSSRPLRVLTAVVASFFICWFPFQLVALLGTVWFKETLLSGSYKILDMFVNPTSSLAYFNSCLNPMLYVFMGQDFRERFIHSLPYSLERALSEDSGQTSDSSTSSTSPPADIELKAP
The description is as above.

In assay [4] the target is T4, murine FPR1 (murine, UniProt P33766 1-364).
T4 construct: formyl peptide receptor 1, mouse, overexpressed in HEK293 cells; also called murine formyl peptide receptor 1; source: HEK293 overexpressing FPRs, membrane debris
T4 sequence (looked up): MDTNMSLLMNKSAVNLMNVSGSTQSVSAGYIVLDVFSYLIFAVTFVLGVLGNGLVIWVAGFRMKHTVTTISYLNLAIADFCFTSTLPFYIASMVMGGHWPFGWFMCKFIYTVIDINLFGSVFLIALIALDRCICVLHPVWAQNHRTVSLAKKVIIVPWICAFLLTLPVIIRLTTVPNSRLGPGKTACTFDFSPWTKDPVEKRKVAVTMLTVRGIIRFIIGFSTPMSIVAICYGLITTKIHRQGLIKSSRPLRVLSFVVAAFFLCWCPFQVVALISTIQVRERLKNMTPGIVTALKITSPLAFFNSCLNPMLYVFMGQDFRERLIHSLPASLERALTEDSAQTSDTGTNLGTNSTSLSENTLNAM
Described as above.

Assay [5] addresses T1, human formyl peptide receptor 1 (FPR1). Kind of assay: other fluorescence titration; saturation binding assay; BODIPY FL iodoacetamide-labelled SCIMP^N with membrane component (debris) of HEK293 cells overexpressing FPRs, black/clear bottom 96-well plate, quenching of the label on binding, excited at 370 nm, detected at 512 nm, measured for 4 min. As to conditions: one partner purified.

Assay [6] concerns the target T2, human formyl peptide receptor 2 (FPR2). The description is as above. Conditions: one partner purified.
The target of assay [7] is T3, murine FPR2. The description is as above. As to conditions: one partner purified.
Assay [8] deals with T4, murine FPR1. The assay is described as above. As to conditions: one partner purified.

N-Formyl-Met-Leu-Phe (fMLF) (peptide): the IC50 in assay [1] was found to be 55.2 nM; in assay [2] it was 38.4 nM; in assay [3], 43.1 nM; in assay [4], 148 nM.

B1: human SCIMP N-terminus peptide (SCIMP^N, 18aa) (peptide)
peptide: MDTFTVQDSTAMSWWRNN
modifications: also: labeled with BODIPY FL iodoacetamide, site not given here
notes: the 18 amino acids before the transmembrane domain at the N-terminus (extramembrane fragment); also called SCIMP N-terminal peptides; source: synthetic peptide (Chinese-Peptide-Company.Inc), purity more than 95%
Turning to B1, the Kd in assay [5] came to 3.8 nM; in assay [6], 3.5 nM.

B2: murine SCIMP N-terminus peptide (murine SCIMP^N) (peptide)
peptide: MSWWRDNF
modifications: also: labeled with BODIPY FL iodoacetamide, site not given here
notes: N-terminus peptide; source: synthetic peptide (chemically synthesized and purified; Chinese-Peptide-Company.Inc), purity more than 95%
Turning to B2, the Kd came out at 0.54 nM in assay [7] and 1.08 nM in assay [8].

These data come from publication PMC10805922, “Exosomal secreted SCIMP regulates communication between macrophages and neutrophils in pneumonia” (Nature Communications, 2024).
